In publication PMC9765176, “Infant Antibody Repertoires during the First Two Years of Influenza Vaccination” (mBio, 2022):

Legend:
[1] = biological target: T1, recombinant hemagglutinin B/Brisbane/2008, head construct (trimeric, head-only) (influenza B virus B/Brisbane/60/2008, UniProt C0LT35, strain); assay: multiplex bead assay (Luminex); conditions: one partner purified
T1 construct: also called rHA head

[2] = biological target: T2, recombinant hemagglutinin B/Brisbane/2008, full-length construct (full-length soluble ectodomain, FLsE) (influenza B virus B/Brisbane/60/2008, UniProt C0LT35, strain); assay: multiplex bead assay (Luminex); conditions: one partner purified
T2 construct: also called B/Brisbane/60/2008; B/Vic

B1: year 2 postvaccination Bmem BCR of infant 1, clonally related to the most abundant IBV HA-specific plasma IgG clonotype (antibody, V domains shown)
VH: EVQLVESGGGLVQPGGSLRLSCAASGFTFRSYEMNWVRQAPGKGLEWISYISGSGGTIYYADSVKGRFTISRDNARNSLYLQMNSLRAEDTAVYYCARDLRGIGDYWGQGTLVTVSS
VL: SSELTQDPAVSVALGQTVRITCQGDSLRSYYASWYQQKPGQAPVLVIYGESNRPSGIPDRFSGSSSGNTASLTITGAQAEDEADYYCNSRDNSGNLYVFGSGTKVTVL
binding result [1]: no binding | binding result [2]: binds
